From publication PMC8397269 (Science Advances, 2021)

Assays:
His-IRIF 53BP1 = His-IRIF 53BP1 (human, UniProt Q12888 1222-1659); assay: pull-down
[1] = target: T1, His-lamin B1, full length (human, UniProt P20700 1-586); assay: pull-down
T1 sequence (looked up): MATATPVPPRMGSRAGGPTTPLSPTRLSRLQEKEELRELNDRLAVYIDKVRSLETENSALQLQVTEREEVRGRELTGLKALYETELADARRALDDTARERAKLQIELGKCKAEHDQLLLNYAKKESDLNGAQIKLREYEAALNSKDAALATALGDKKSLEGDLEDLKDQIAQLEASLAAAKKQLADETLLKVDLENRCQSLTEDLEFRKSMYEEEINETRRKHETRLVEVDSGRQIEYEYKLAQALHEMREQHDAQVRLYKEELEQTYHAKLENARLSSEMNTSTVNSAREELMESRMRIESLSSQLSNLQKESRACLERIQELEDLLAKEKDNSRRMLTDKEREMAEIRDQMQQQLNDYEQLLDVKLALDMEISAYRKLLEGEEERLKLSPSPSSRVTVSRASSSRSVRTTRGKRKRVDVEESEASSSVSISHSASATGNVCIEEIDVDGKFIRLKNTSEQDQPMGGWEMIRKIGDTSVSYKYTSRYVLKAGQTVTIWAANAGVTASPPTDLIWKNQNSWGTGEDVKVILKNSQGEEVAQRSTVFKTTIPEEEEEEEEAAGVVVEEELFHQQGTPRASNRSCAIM

B1: GST-Nterm lamin B1 (domain or fragment, human, UniProt P20700 1-424, looked up)
chain: MATATPVPPRMGSRAGGPTTPLSPTRLSRLQEKEELRELNDRLAVYIDKVRSLETENSALQLQVTEREEVRGRELTGLKALYETELADARRALDDTARERAKLQIELGKCKAEHDQLLLNYAKKESDLNGAQIKLREYEAALNSKDAALATALGDKKSLEGDLEDLKDQIAQLEASLAAAKKQLADETLLKVDLENRCQSLTEDLEFRKSMYEEEINETRRKHETRLVEVDSGRQIEYEYKLAQALHEMREQHDAQVRLYKEELEQTYHAKLENARLSSEMNTSTVNSAREELMESRMRIESLSSQLSNLQKESRACLERIQELEDLLAKEKDNSRRMLTDKEREMAEIRDQMQQQLNDYEQLLDVKLALDMEISAYRKLLEGEEERLKLSPSPSSRVTVSRASSSRSVRTTRGKRKRVDVEES
binding result (His-IRIF 53BP1): binds

B2: GST-Head-Coil1 lamin B1 (domain or fragment, human, UniProt P20700 1-243, looked up)
chain: MATATPVPPRMGSRAGGPTTPLSPTRLSRLQEKEELRELNDRLAVYIDKVRSLETENSALQLQVTEREEVRGRELTGLKALYETELADARRALDDTARERAKLQIELGKCKAEHDQLLLNYAKKESDLNGAQIKLREYEAALNSKDAALATALGDKKSLEGDLEDLKDQIAQLEASLAAAKKQLADETLLKVDLENRCQSLTEDLEFRKSMYEEEINETRRKHETRLVEVDSGRQIEYEYKLA
binding result (His-IRIF 53BP1): binds

B3: GST-53BP1 IRIF (domain or fragment, human, UniProt Q12888 1222-1659, looked up)
chain: EEEFDMPQPPHGHVLHRHMRTIREVRTLVTRVITDVYYVDGTEVERKVTEETEEPIVECQECETEVSPSQTGGSSGDLGDISSFSSKASSLHRTSSGTSLSAMHSSGSSGKGAGPLRGKTSGTEPADFALPSSRGGPGKLSPRKGVSQTGTPVCEEDGDAGLGIRQGGKAPVTPRGRGRRGRPPSRTTGTRETAVPGPLGIEDISPNLSPDDKSFSRVVPRVPDSTRRTDVGAGALRRSDSPEIPFQAAAGPSDGLDASSPGNSFVGLRVVAKWSSNGYFYSGKITRDVGAGKYKLLFDDGYECDVLGKDILLCDPIPLDTEVTALSEDEYFSAGVVKGHRKESGELYYSIEKEGQRKWYKRMAVILSLEQGNRLREQYGLGPYEAVTPLTKAADISLDNLVEGKRKRRSNVSSPATPTASSSSSTTPTRKITESPRA
binding result [1]: binds
